Laboratory results published in patent US20240270846A1 (published 2024).
Substitutions are numbered along the chain they refer to. Numbers in names are those of the source.

B1: GLS3000 Q93Y one-amino acid altered one-arm antibody (CE115HA000-pE22Hh / Kn010G3 / GLS3000 Q93Y-kappa) (antibody, human IgG1, kappa, L234A L235A, N297A, name in Kabat numbering)
heavy: QVQLVESGGGVVQPGRSLRLSCAASGFTFSNAWMHWVRQAPGKGLEWVAQIKAKSNNYATYYAESVKGRFTISRDDSKNSLYLQMNSLKTEDTAVYYCRYVHYGAYYGVDAWGQGTTVTVSSASTKGPSVFPLAPSSKSTSGGTAALGCLVKDYFPEPVTVSWNSGALTSGVHTFPAVLQSSGLYSLSSVVTVPSSSLGTQTYICNVNHKPSNTKVDKKVEPKSCDKTHTCPPCPAPEAAGGPSVFLFPPKPKDTLMISRTPEVTCVVVDVSHEDPEVKFNWYVDGVEVHNAKTKPREEQYASTYRVVSVLTVLHQDWLNGKEYKCKVSNKALPAPIEKTISKAKGQPREPQVYTLPPSRCELTKNQVSLSCAVKGFYPSDIAVEWESNGQPENNYKTTPPVLDSDGSFFLVSKLTVDKSRWQQGNVFSCSVMHEALHNHYTQKSLSLSPDYKDDDDK
chain: EPKSSDKTHTCPPCPAPELLGGPSVFLFPPKPKDTLMISRTPEVTCVVVDVSHEDPEVKFNWYVDGVEVHNAKTKPREEQYNSTYRVVSVLTVLHQDWLNGKEYKCKVSNKALPAPIEKTISKAKGQPREPQVCTLPPSRDELTKNQVSLWCLVKGFYPSDIAVEWESNGQPENNYKTTPPVLDSDGSFFLYSKLTVDKSRWQQGNVFSCSVMHEALHNRYTQKSLSLSP
light: DIVMTQSPLSLPVTPGEPASISCRSSQSLVHSNRNTYLHWYQQKPGQAPRLLIYKVSNRFSGVPDRFSGSGSGTDFTLKISRVEAEDVGVYYCGQGTYVPYTFGQGTKLEIKRTVAAPSVFIFPPSDEQLKSGTASVVCLLNNFYPREAKVQWKVDNALQSGNSQESVTEQDSKDSTYSLSSTLTLSKADYEKHKVYACEVTHQGLSSPVTKSFNRGEC
notes: One-arm antibody; substitution position in Kabat numbering; also called L chain altered form, Kabat 93 Q to Y
B2: GLS3000 T97P one-amino acid altered one-arm antibody (CE115HA000-pE22Hh / Kn010G3 / GLS3000 T97P-kappa) (antibody, human IgG1, kappa, L234A L235A, N297A, name in Kabat numbering)
heavy: B1 heavy
chain: B1 chain
light: B1 light with Y98Q, T102P
notes: One-arm antibody; substitution position in Kabat numbering; also called L chain altered form, Kabat 97 T to P
B3: GLS3000 Q90Y one-amino acid altered one-arm antibody (CE115HA000-pE22Hh / Kn010G3 / GLS3000 Q90Y-kappa) (antibody, human IgG1, kappa, L234A L235A, N297A, name in Kabat numbering)
heavy: B1 heavy
chain: B1 chain
light: B1 light with Q95Y, Y98Q
notes: One-arm antibody; substitution position in Kabat numbering; also called L chain altered form, Kabat 90 Q to Y
B4: GLS3000 V94T one-amino acid altered one-arm antibody (CE115HA000-pE22Hh / Kn010G3 / GLS3000 V94T-kappa) (antibody, human IgG1, kappa, L234A L235A, N297A, name in Kabat numbering)
heavy: B1 heavy
chain: B1 chain
light: B1 light with Y98Q, V99T
notes: One-arm antibody; substitution position in Kabat numbering; also called L chain altered form, Kabat 94 V to T
B5: GLS3000 Q90P one-amino acid altered one-arm antibody (CE115HA000-pE22Hh / Kn010G3 / GLS3000 Q90P-kappa) (antibody, human IgG1, kappa, L234A L235A, N297A, name in Kabat numbering)
heavy: B1 heavy
chain: B1 chain
light: B1 light with Q95P, Y98Q
notes: One-arm antibody; substitution position in Kabat numbering; also called L chain altered form, Kabat 90 Q to P
B6: GLS3000 V94Y one-amino acid altered one-arm antibody (CE115HA000-pE22Hh / Kn010G3 / GLS3000 V94Y-kappa) (antibody, human IgG1, kappa, L234A L235A, N297A, name in Kabat numbering)
heavy: B1 heavy
chain: B1 chain
light: B1 light with Y98Q, V99Y
notes: One-arm antibody; substitution position in Kabat numbering; also called L chain altered form, Kabat 94 V to Y
B7: GLS3000 V94W one-amino acid altered one-arm antibody (CE115HA000-pE22Hh / Kn010G3 / GLS3000 V94W-kappa) (antibody, human IgG1, kappa, L234A L235A, N297A, name in Kabat numbering)
heavy: B1 heavy
chain: B1 chain
light: B1 light with Y98Q, V99W
notes: One-arm antibody; substitution position in Kabat numbering; also called L chain altered form, Kabat 94 V to W
B8: GLS3000 T92Y one-amino acid altered one-arm antibody (CE115HA000-pE22Hh / Kn010G3 / GLS3000 T92Y-kappa) (antibody, human IgG1, kappa, L234A L235A, N297A, name in Kabat numbering)
heavy: B1 heavy
chain: B1 chain
light: B1 light with T97Y, Y98Q
notes: One-arm antibody; substitution position in Kabat numbering; also called L chain altered form, Kabat 92 T to Y
B9: GLS3000 K74T one-amino acid altered one-arm antibody (CE115HA000-pE22Hh / Kn010G3 / GLS3000 K74T-kappa) (antibody, human IgG1, kappa, L234A L235A, N297A, name in Kabat numbering)
heavy: B1 heavy
chain: B1 chain
light: B1 light with K79T, Y98Q
notes: One-arm antibody; substitution position in Kabat numbering; also called L chain altered form, Kabat 74 K to T
B10: GLS3000 G91Y one-amino acid altered one-arm antibody (CE115HA000-pE22Hh / Kn010G3 / GLS3000 G91Y-kappa) (antibody, human IgG1, kappa, L234A L235A, N297A, name in Kabat numbering)
heavy: B1 heavy
chain: B1 chain
light: B1 light with G96Y, Y98Q
notes: One-arm antibody; substitution position in Kabat numbering; also called L chain altered form, Kabat 91 G to Y
B11: GLS3000 P95S one-amino acid altered one-arm antibody (CE115HA000-pE22Hh / Kn010G3 / GLS3000 P95S-kappa) (antibody, human IgG1, kappa, L234A L235A, N297A, name in Kabat numbering)
heavy: B1 heavy
chain: B1 chain
light: B1 light with Y98Q, P100S
notes: One-arm antibody; substitution position in Kabat numbering; also called L chain altered form, Kabat 95 P to S
B12: GLS3000 V94Q one-amino acid altered one-arm antibody (CE115HA000-pE22Hh / Kn010G3 / GLS3000 V94Q-kappa) (antibody, human IgG1, kappa, L234A L235A, N297A, name in Kabat numbering)
heavy: B1 heavy
chain: B1 chain
light: B1 light with Y98Q, V99Q
notes: One-arm antibody; substitution position in Kabat numbering; also called L chain altered form, Kabat 94 V to Q
B13: GLS3000 Q93P one-amino acid altered one-arm antibody (CE115HA000-pE22Hh / Kn010G3 / GLS3000 Q93P-kappa) (antibody, human IgG1, kappa, L234A L235A, N297A, name in Kabat numbering)
heavy: B1 heavy
chain: B1 chain
light: B1 light with Y98P
notes: One-arm antibody; substitution position in Kabat numbering; also called L chain altered form, Kabat 93 Q to P
B14: GLS3000 T92P one-amino acid altered one-arm antibody (CE115HA000-pE22Hh / Kn010G3 / GLS3000 T92P-kappa) (antibody, human IgG1, kappa, L234A L235A, N297A, name in Kabat numbering)
heavy: B1 heavy
chain: B1 chain
light: B1 light with T97P, Y98Q
notes: One-arm antibody; substitution position in Kabat numbering; also called L chain altered form, Kabat 92 T to P

Biological target: T1, CD3 epsilon homodimer protein (UniProt P07766 23-126)
T1 construct: also called CD3 (CD3 epsilon)
Assay: SPR Biacore T200, CD3 epsilon homodimer immobilised on CM4, one-arm antibody as analyte, single-cycle kinetics; reference unaltered GLS3000 antibody;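 note: CD3 epsilon homodimer attached to the CM4 chip via amine coupling, measured at 25 °C with HBS-EP+ as running buffer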
Method: An appropriate amount of CD3 epsilon homodimer protein was immobilized onto Sensor chip CM4 (GE Healthcare Japan Corp.) by the amine coupling method. Then, the antibody having an appropriate concentration was injected thereto as an analyte and allowed to interact with the CD3 epsilon homodimer protein on the sensor chip. Then, the sensor chip was regenerated by the injection of 10 mmol/L glycine-HCl (pH 1.5). The assay was conducted at 25 degrees C., and HBS-EP+(GE Healthcare Japan Corp.) was used as a running buffer. […] Each parameter was calculated using Biacore T200 Evaluation Software (GE Healthcare Japan Corp.).
Specifically, when the amount of the GLS3000-containing antibody bound was defined as X and the amount of the L chain one-amino acid altered form bound was defined as Y, a value of Z (ratio of amounts bound)=Y/X was used.

T1 sequence (P07766 23-126): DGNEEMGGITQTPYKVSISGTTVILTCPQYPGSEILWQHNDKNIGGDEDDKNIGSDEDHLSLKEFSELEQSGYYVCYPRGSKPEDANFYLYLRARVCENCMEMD

Row | Binder | dissociation constant KD(M) ratio of L chain altered form to GLS3000 [ratio]
1 | B1 | 0.76
2 | B2 | 3.35
3 | B3 | 36.3
4 | B4 | 1.06
5 | B5 | 15.9
6 | B6 | 2.45
7 | B7 | 1.81
8 | B8 | 2.55
9 | B9 | 0.85
10 | B10 | 33.8
11 | B11 | 1.19
12 | B12 | 1.1
13 | B13 | 39.5
14 | B14 | 26.7
